“Also recorded” adds a separate entry of the source.

What all share (assay type): in vivo, mouse
In test [1] the test system is TRALI in BALB/c mice. In words: Two-event (LPS + anti-H-2Kd mAb) TRALI model. As for the experimental part: In order to determine the effect of anti-NET compounds as a treatment for TRALI, a mouse model of the 2-hit TRALI model was utilized. BALB/c male mice (8-10 week-old) were primed with an intraperitoneal injection of lipopolysaccharide (LPS) (0.1 or 0.5 mg/kg) 24 hours prior to challenge with anti-H2K^dmAb (clone 34-1-2s1, 1 mg/kg) or isotype control injected retro-orbitally. Before each injection mice were shortly anesthetized by inhalation of isoflurane. To measure the effect of DNaseI treatment on mice experiencing TRALI, mice received intranasal DNaseI (50 μg/mouse, 1 μg/ul) or 50 μl of the buffer-vehicle 10 minutes prior to the antibody injection.
The model was adapted from Looney et al. (2009).^20 Male BALB/c mice (8-10 week old) were primed with an i.p. injection of LPS (0.1 or 0.5 mg/kg, as indicated in the text) 24 hours prior to challenge with anti-H-2K^d mAb (clone 34-1-2s, 1 mg/kg) or isotype control injected retro-orbitally. In experiments involving DNase 1 treatment, mice that were injected with both LPS and the anti-H-2K^d mAb received i.n. DNase 1 (PULMOZYME®, Genentech, 50 μg/mouse, 1 μg/ul) 10 minutes before or 90 minutes after antibody injection. Control TRALI mice were injected with 50 μl of the DNase 1 vehicle-buffer in DNase 1 experiments. Blood collection, lung harvesting and arterial oxygen saturation measurements were all performed 2 hours after antibody injection. No event of TRALI-related death was recorded under these conditions in any of the treated mice.
Rectal temperatures were measured as an indicator of shock-like condition 2 hours post anti-H-2K^d infusion using a rectal temperature probe (MOUSEOX PLUS® system, STARR Life Sciences) connected to a POWERLAB™ data acquisition system (ADInstruments, USA).
Mouse peripheral blood counts were measured from EDTA (ethylenediaminetetraacetic acid)-anti-coagulated blood with a HEMAVET™ 950 veterinary hematology analyzer (Drew Scientific). This blood counter uses two different currents to analyze the cells. A low voltage current determines the volume and the number of cells (Coulter Impedance principle) and a high voltage current that passes through the cells generates information on their internal structure such as nucleus, fluid, granules and vacuoles.
Mice were sacrificed and intubated with a 24-gauge cannula after their tracheas were surgically isolated. The lungs were flushed three times with 0.8 ml of sterile PBS. BAL fluids were centrifuged for 5 minutes at 800 g. Protein concentration was quantified in the supernatant using the bicinchoninic acid method.
Blood arterial oxygen saturation was recorded 2 hours after anti-H-2K^d antibody injection, using a small rodent oxymeter sensor (MOUSE^OX™, STARR Life Sciences) mounted on the collar of each tested mouse. The 2 hour endpoint was used as per the model published by Looney and colleagues in 2009.^20-22
Mouse lungs were fixed by intratracheal infusion of 1.5% formaldehyde/1.5% glutaraldehyde in sodium cacodylate buffer (pH 7.35), excised and bathed in the same solution for 2 hours at 4° C. The fixed lungs were sliced into 0.5 mm sections; the sections were washed extensively in distilled water, frozen on a liquid-helium cooled copper block, freeze-dried at −80° C., and coated with 2 nm of platinum at a 45° angle with rotation and 10 nm of carbon without rotation. Tissue was removed from the metal casting using bleach (Austin's A-1-5.25% sodium hypochlorite), washed and picked up on formvar-coated 200 mesh copper grids. Grids were photographed in a JEOL-1200 EX electron microscope at 100 kV.

The test system of test [2] is TRALI in BALB/c mice. In words: Two-event (LPS + anti-H-2Kd mAb) TRALI model. To be noted: i.v. administration.
Test [3] deals with flow restriction-induced DVT in mice. Kind of test: IVC stenosis (flow restriction) model of deep vein thrombosis. An excerpt: Mice were anesthetized by isoflurane-oxygen mixture and placed in a supine position. After laparotomy, intestines were exteriorized and warm sterile saline was applied during the whole procedure to prevent drying. After gentle separation from aorta, IVC was ligated over a 30 G needle by a 7.0 polypropylene suture immediately below the renal veins (towards the tail) and then the needle was removed. The needle was placed outside the vessel so that piercing or any other injury to the IVC wall was completely avoided. This procedure allows for standardized flow restriction without endothelial injury. All visible side branches (usually 1 or 2) were also ligated. After surgery, peritoneum and skin were closed by monofilament absorbable suture and 6.0 silk, respectively. Mice were euthanized after 6 h or 48 h and thrombi developed in the IVC below the suture (towards the tail) were taken for analysis.
All mice were treated with DNaseI (Pulmozyme®) immediately after surgery and mice with 48 h IVC stenosis received 3 additional injections every 12 hours. The dose of every injection was 50 μg i.p. (50 μl of non-diluted Pulmozyme) and 10 μg i.v. (in 50 μl of sterile saline) in retro-orbital plexus. Control mice were injected with the same volume of DNase buffer (8.77 mg/ml sodium chloride and 0.15 mg/ml calcium chloride in sterile water for injections).
Flow restriction model. The murine model of DVT was performed as described. […] A suture was placed on the IVC just below the renal veins over a spacer (diameter of 0.26 mm) and then the spacer was removed. […] All visible IVC side branches were also sutured. Thereafter, peritoneum and skin were closed, mice were sacrificed after 1-48 h and thrombi formed in the IVC were harvested. Sham-operated mice were opened and IVC sutured similarly to the experimental mice, but the suture was removed immediately after ligation.
Histone infusion. A mixture of all histones isolated from calf thymus (Worthington, Lakewood, NJ, USA) was dissolved in sterile saline and infused intravenously in mice immediately before IVC stenosis application. The dose used (10 mg kg^−1) is known to produce a 25% decrease in platelet count 10 min after infusion. The infused solution of histone mix was essentially endotoxin-free (<0.025 EU mL^−1; measured using the endotoxin detection kit [Lonza, Walkersville, MD, USA] according to the manufacturer's instructions). Control mice received infusion of sterile saline. Mice were sacrificed 1 h after surgery and thrombus formation was examined.
DNase 1 infusion. DNase 1 (PULMOZYME®, Genentech, San Francisco, CA, USA) was diluted in sterile saline and injected immediately after surgery (50 μg intraperitoneally and 10 μg intravenously). In experiments with 48 h IVC stenosis, injections were repeated three more times after every 12 h. Control mice were injected with the PULMOZYME™ vehicle buffer (8.77 mg mL^−1 sodium chloride and 0.15 mg mL^−1 calcium chloride) diluted in sterile saline.

Where [4] appears, read: intranasal DNaseI 50 μg/mouse 10 min prior to antibody.
The mark [5] stands for this setting: 6 h and 48 h IVC stenosis, vs vehicle.

B1: rhDNase-1: recombinant human DNase-1 (Dornase alpha, Pulmozyme, Genentech) (protein, UniProt P24855 23-282, looked up)
Deoxyribonuclease-1: LKIAAFNIQTFGETKMSNATLVSYIVQILSRYDIALVQEVRDSHLTAVGKLLDNLNQDAPDTYHYVVSEPLGRNSYKERYLFVYRPDQVSAVDSYYYDDGCEPCGNDTFNREPAIVRFFSRFTEVREFAIVPLHAAPGDAVAEIDALYDVYLDVQEKWGLEDVMLMGDFNAGCSYVRPSQWSSIRLWTSPTFQWLIPDSADTTATPTHCAYDRIVVAGMLLRGAVVPDSALPFNFQAAYGLSDQLAQAISDHYPVEVMLK
For the molecule B1, in test [1] (2 hours after mAb infusion, DNase 1 as prophylaxis or treatment), the “rectal temperature (shock-like condition)” value is reported as “normal”. Also, the “arterial oxygen saturation (mean and minimum)” value in test [1] (DNase 1 i.n. 90 minutes after onset of TRALI (Post)) was “improves arterial oxygen saturation; also recorded: succeeded in correcting the defect in blood oxygenation”; in test [1] (DNase 1 i.n. pretreatment 10 min before antibody (Pre)), “succeeded in correcting the defect in blood oxygenation; also recorded: more stable arterial blood oxygen saturation and improved transient hypoxia”. Besides, the “down spikes in blood arterial oxygen saturation (transient hypoxia)” value in test [1] (DNase 1 i.n. pretreatment vs vehicle buffer) is given as “significantly attenuated”. The TRALI outcome is “had a positive effect” in test [1] (inhalation, before or after TRALI onset) and “did not improve TRALI outcome” in test [2]. For the same molecule, the “fibrous material (NETs) in alveoli, electron microscopy” value in test [1] (intranasal DNase 1 50 μg/mouse 10 min prior to antibody injection) is listed as “absent; also recorded: prevents their alveolar accumulation; also recorded: no fibrous material could be detected”. The “TRALI-induced decrease of platelet counts” value in test [1] (setting [4]) is “diminished”. Moreover, the “TRALI-induced increase of BAL protein levels” value in test [1] (setting [4]) is “diminished”. The “protection from DVT (thrombus incidence)” value in test [3] (6 h and 48 h IVC stenosis) is reported as “protected mice from flow restriction-induced DVT”; in test [3] (6 h and 48 h IVC stenosis, listed as DNaseI) it was “greatly reduces the incidence of thrombosis”. Further, the thrombus length entry in test [3] (setting [5]) is “significantly reduced”. Moreover, in test [3] (setting [5]), the thrombus weight result is “significantly reduced”. The “mice that developed a thrombus” value in test [3] (48 h IVC stenosis, 50 μg i.p. and 10 μg i.v. every 12 h, 2 of 12, vehicle 5 of 8) is 17%.

The record behind these values is patent US11819540B2, “Methods for treating and preventing neutrophil-derived net toxicity and thrombosis” (CHILDREN'S MEDICAL CENTER CORPORATION, priority 2011, dated 2023).
